The values below come from patent publication US20230085439A1.

For test [1], the target named is hMPV 130-BV (human metapneumovirus). In words: biolayer interferometry, hMPV 130-BV on anti-penta-HIS biosensors; unit inferred.
For test [2], the target named is monomeric hMPV B2 F protein treated with trypsin (human metapneumovirus). In words: ELISA on coated antigen, mAb titrated; panel hMPV B2 F monomer (trypsin), key 6. On the technique in general: ELISA stands for enzyme-linked immunosorbent assay.
Test [3] has as its target trimeric hMPV B2 F protein treated with trypsin (human metapneumovirus). In words: ELISA on coated antigen, mAb titrated; panel hMPV B2 F trimer (trypsin), key 6.
For test [4], the target named is pre-fusion RSV F protein A2 SC-TM (respiratory syncytial virus) (UniProt P03420). In words: ELISA on coated antigen, mAb titrated; EC50 box, key 6.

In test [1], 101F Fab registered a Kd of 53 nM.

On to DS7 (antibody), for which the 50% effective concentration (EC50) in test [2] turned out to be 0.1 µg/mL; in test [3], 0.18 µg/mL.

On to MPE8 (antibody), for which the EC50 in test [4] came to 0.087 µg/mL.

A word on the Kd: it is a measure of binding affinity in units of concentration. One may read the EC50 as the concentration at which the effect is half-maximal.
